In article PMC10694151, “Regulation of the cell division hydrolase RipC by the FtsEX system in Mycobacterium tuberculosis” (Nature Communications, 2023):

Target: T1, RipC (Rv2190c) of Mycobacterium tuberculosis, construct RipCΔ33 (Mycobacterium tuberculosis, UniProt P9WHU3 34-385)
T1 construct: also called MtbRipC; RipC∆33
T1 sequence: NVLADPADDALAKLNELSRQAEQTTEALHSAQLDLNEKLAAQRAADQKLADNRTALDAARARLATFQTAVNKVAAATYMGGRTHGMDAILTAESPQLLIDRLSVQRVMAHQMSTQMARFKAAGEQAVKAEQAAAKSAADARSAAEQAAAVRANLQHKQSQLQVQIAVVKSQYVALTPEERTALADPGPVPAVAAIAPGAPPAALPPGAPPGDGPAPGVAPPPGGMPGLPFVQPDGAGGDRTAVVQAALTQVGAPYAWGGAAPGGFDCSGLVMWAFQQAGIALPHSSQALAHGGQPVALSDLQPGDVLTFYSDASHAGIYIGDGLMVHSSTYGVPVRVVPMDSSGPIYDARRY
Experiment: cryo-EM structure; FtsEX or FtsEX-RipC in peptidiscs, 3 mg/ml, ATP-free
Settings: both partners purified

B1: FtsX (Rv3101c) of Mycobacterium tuberculosis (natural protein)
chain: MRFGFLLNEVLTGFRRNVTMTIAMILTTAISVGLFGGGMLVVRLADSSRAIYLDRVESQVFLTEDVSANDSSCDTTACKALREKIETRSDVKAVRFLNRQQAYDDAIRKFPQFKDVAGKDSFPASFIVKLENPEQHKDFDTAMKGQPGVLDVLNQKELIDRLFAVLDGLSNAAFAVALVQAIGAILLIANMVQVAAYTRRTEIGIMRLVGASRWYTQLPFLVEAMLAATMGVGIAVAGLMVVRALFLENALNQFYQANLIAKVDYADILFITPWLLLLGVAMSGLTAYLTLRLYVRR
notes: also called MtbFtsX
binding result: binds
